Assay results: patent US10064928B2, “Peptides and combination of peptides for use in immunotherapy against CLL and other cancers” (IMMATICS BIOTECHNOLOGIES GMBH, priority 2015, dated 2018)

The substances below were run against HLA-A*02:01 (Homo sapiens, UniProt P04439, D140Y/D185E/D98H/E176V/E277Q/G131W/G231S/I119V/I121R/I166T/I218V/L300P/L318F/N151K/N90K/P208A/P217A/Q86G/Q94H/R138H/R169H/T345S) (assay: MHC binding assay (UV-ligand exchange, beta2m ELISA)). Details: binding of HLA-class I restricted peptides to HLA-A*02:01, β2m ELISA.
Description: Candidate peptides for T cell based therapies according to the present invention were further tested for their MHC binding capacity (affinity). The individual peptide-MHC complexes were produced by UV-ligand exchange, where a UV-sensitive peptide is cleaved upon UV-irradiation, and exchanged with the peptide of interest as analyzed. Only peptide candidates that can effectively bind and stabilize the peptide-receptive MHC molecules prevent dissociation of the MHC complexes. To determine the yield of the exchange reaction, an ELISA was performed based on the detection of the light chain (β2m) of stabilized MHC complexes. The assay was performed as generally described in Rodenko et al. (Rodenko et al., 2006).
96 well MAXISorp plates (NUNC) were coated over night with 2 ug/ml streptavidin in PBS at room temperature, washed 4× and blocked for 1 h at 37° C. in 2% BSA containing blocking buffer. Refolded HLA-A*02:01/MLA-001 monomers served as standards, covering the range of 15-500 ng/ml. Peptide-MHC monomers of the UV-exchange reaction were diluted 100 fold in blocking buffer. Samples were incubated for 1 h at 37° C., washed four times, incubated with 2 ug/ml HRP conjugated anti-β2m for 1 h at 37° C., washed again and detected with TMB solution that is stopped with […]. Absorption was measured at 450 nm. Candidate peptides that show a high exchange yield (preferably higher than 50%, most preferred higher than 75%) are generally preferred for a generation and production of antibodies or fragments thereof, and/or T cell receptors or fragments thereof, as they show sufficient avidity to the MHC molecules and prevent dissociation of the MHC complexes.

Peptide Exchange (MHC class I binding score, peptide exchange yield) | Substance
“+++” (≥50 = +++) | 90 (VIADLGLIRV; listed as Homo sapiens) [compound 90]
“+++” (≥50 = +++) | 152 (SLIRILQTI; listed as Homo sapiens) [compound 152]
“+++” (≥50 = +++) | 184 (VLSHNLYTV; listed as Homo sapiens) [compound 184]
“+++” (≥50 = +++) | 38 (FIMEGGAMV; listed as Homo sapiens) [compound 38]
“+++” (≥50 = +++) | 226 (AMNISVPQV; listed as Homo sapiens) [compound 226]
“++” (≥20% = ++) | 3 (VIAELPPKV; listed as Homo sapiens) [compound 3]
“+” (≥10% = +) | 135 (MTAGFSTIAGSV; listed as Homo sapiens) [compound 135]
“+++” (≥50 = +++) | 109 (KLWEGLTELV; listed as Homo sapiens) [compound 109]
“+++” (≥50 = +++) | 59 (FVFGDENGTVSL; listed as Homo sapiens) [compound 59]
“++” (≥20% = ++) | 80 (VLIEDELEEL; listed as Homo sapiens) [compound 80]

More lines, now with the values behind:

Substance | Peptide Exchange (MHC class I binding score, peptide exchange yield)
124 (LLLEETEKQAV; listed as Homo sapiens) [compound 124] | “+++” (≥50 = +++)
140 (QIAELPATSV; listed as Homo sapiens) [compound 140] | “+++” (≥50 = +++)
356 (FLHDHQAEL; listed as Homo sapiens) [compound 356] | “++” (≥20% = ++)
330 (VLMWEIYSL; listed as Homo sapiens) [compound 330] | “+++” (≥50 = +++)
318 (NLQVTQPTV; listed as Homo sapiens) [compound 318] | “+++” (≥50 = +++)
11 (ALFTFSPLTV; listed as Homo sapiens) [compound 11] | “+++” (≥50 = +++)
79 (GLQAKIQEA; listed as Homo sapiens) [compound 79] | “+++” (≥50 = +++)
275 (VLLFIEHSV; listed as Homo sapiens) [compound 275] | “+++” (≥50 = +++)
301 (AASPIITLV; listed as Homo sapiens) [compound 301] | “+++” (≥50 = +++)
286 (FLLEDLSQKL; listed as Homo sapiens) [compound 286] | “+++” (≥50 = +++)
139 (NLTDVVEKL; listed as Homo sapiens) [compound 139] | “+++” (≥50 = +++)
195 (YLGGFALSV; listed as Homo sapiens) [compound 195] | “++++” (≥75% = ++++)
172 (TLYDMLASI; listed as Homo sapiens) [compound 172] | “+++” (≥50 = +++)
166 (TLDPNQVSL; listed as Homo sapiens) [compound 166] | “++” (≥20% = ++)
231 (FLYIRQLAI; listed as Homo sapiens) [compound 231] | “+++” (≥50 = +++)
196 (YLLLQTYVL; listed as Homo sapiens) [compound 196] | “+” (≥10% = +)
266 (TLLDQLDTQL; listed as Homo sapiens) [compound 266] | “++” (≥20% = ++)
30 (ELLEGSEIYL; listed as Homo sapiens) [compound 30] | “+++” (≥50 = +++)
